Assay [1] addresses T1, human C3b (human, UniProt P01024 749-1663; P01024 23-667). Briefly: ELISA.
Assay [2] addresses T1, human C3b. Briefly: ELISA; culture supernatant.
Assay [3] deals with T1, human C3b. Description: ELISA. The source holds these as a separate data set. On the technique in general: ELISA stands for enzyme-linked immunosorbent assay.

By EC50 is commonly meant the concentration at which the effect is half-maximal. Read a high EC50 as a less potent agent.

Numbering of substitutions follows the chain as printed. Names may count otherwise.

T1 sequence (P01024 749-1663, chain 1 of 2): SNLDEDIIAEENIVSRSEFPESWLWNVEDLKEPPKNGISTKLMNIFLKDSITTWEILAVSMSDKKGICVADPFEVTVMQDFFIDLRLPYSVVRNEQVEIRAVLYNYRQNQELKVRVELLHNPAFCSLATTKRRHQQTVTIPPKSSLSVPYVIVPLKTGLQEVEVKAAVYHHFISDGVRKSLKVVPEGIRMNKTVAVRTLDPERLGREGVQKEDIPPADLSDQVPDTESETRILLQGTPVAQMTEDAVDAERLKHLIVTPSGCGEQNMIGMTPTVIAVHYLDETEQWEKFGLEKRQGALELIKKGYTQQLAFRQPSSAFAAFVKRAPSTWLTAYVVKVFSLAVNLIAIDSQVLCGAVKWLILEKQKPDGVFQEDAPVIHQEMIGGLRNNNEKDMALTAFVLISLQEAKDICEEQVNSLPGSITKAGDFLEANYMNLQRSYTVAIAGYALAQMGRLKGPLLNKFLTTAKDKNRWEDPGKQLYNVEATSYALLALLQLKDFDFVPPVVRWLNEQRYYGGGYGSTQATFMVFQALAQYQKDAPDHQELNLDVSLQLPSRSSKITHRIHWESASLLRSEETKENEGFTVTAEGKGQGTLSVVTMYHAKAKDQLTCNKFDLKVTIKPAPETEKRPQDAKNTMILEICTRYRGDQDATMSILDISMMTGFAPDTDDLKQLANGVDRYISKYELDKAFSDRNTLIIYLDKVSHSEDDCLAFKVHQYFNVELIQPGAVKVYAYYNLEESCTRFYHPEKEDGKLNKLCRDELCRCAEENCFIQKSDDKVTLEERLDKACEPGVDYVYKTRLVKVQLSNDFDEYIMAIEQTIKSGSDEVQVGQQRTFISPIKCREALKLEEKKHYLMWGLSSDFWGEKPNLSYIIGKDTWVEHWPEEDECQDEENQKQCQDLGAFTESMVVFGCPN
T1 sequence (P01024 23-667, chain 2 of 2): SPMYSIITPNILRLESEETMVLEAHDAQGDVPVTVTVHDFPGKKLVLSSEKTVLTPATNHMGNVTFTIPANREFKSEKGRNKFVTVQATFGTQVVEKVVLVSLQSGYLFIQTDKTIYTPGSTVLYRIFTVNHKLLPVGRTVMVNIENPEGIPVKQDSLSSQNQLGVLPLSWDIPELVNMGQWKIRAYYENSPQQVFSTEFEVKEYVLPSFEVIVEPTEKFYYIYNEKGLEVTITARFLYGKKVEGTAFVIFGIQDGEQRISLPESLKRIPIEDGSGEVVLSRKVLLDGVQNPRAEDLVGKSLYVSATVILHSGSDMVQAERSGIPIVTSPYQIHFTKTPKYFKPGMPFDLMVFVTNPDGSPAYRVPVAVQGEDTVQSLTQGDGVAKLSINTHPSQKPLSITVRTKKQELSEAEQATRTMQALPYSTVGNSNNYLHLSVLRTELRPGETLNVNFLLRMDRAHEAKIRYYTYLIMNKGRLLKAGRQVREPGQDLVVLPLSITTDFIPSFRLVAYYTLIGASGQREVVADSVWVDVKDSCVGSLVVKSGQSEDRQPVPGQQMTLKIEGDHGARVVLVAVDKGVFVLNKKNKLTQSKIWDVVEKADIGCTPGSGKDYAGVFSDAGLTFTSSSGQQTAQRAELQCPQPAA

B1: Var108 (glycoengineered variant of FHL-1, G442N in the Var004 framework) (designed binder)
chain: EDCNELPPRRNTEILTGSWSDQTYPEGTQAIYKCRPGYRSLGNVIMVCRKGEWVALNPLRKCQKRPCGHPGDTPFGTFTLTGGNVFEYGVKAVYTCNEGYQLLGEINYRECDTDGWTNDIPICEVVKCLPVTAPENGKIVSSAMEPDREYHFGQAVRFVCNSGYKIEGDEEMHCSDDGFWSKEKPKCVEISCKSPDVINGSPISQKIIYKENERFQYKCNMGYEYSERGDAVCTESGWRPLPSCEEKSCDNPYIPNGDYSPLRIKHRTGDEITYQCRNGFYPATRGNTAKCTSTGWIPAPRCTLKPCDYPDIKHGGLYHENMRRPYFPVAVGKYYSYYCDEHFETPSGSYWDHIHCTQDGWSPAVPCLRKCYFPYLENGYNQNYGRKFVQGKSIDVACHPGYALPKAQTTVTCMENGWSPTPRCIRVSGGGGSGGGGSGGGNSTLKPCDYPDIKHGGLYHENMRRPYFPVAVGKYYSYYCDEHFETPSGSYWDHIHCTQDGWSPAVPCLRKCYFPYLENGYNQNYGRKFVQGKSIDVACHPGYALPKAQTTVTCMENGWSPTPRCIRVSFTL
modifications: N-linked glycosylation at the engineered NxS/T motif (G442N), >90% glycosylated monomer
In the case of B1, in the assay with human C3b [1], the EC50 was determined as 0.4 nM.

B2: Var004 (engineered variant of FHL-1) (designed binder)
chain: B1 chain with N442G
With B2, the midpoint of the response with human C3b [2], the EC50, lay at 2.5 nM.

B3: complement factor H (CFH) (other)
chain: EDCNELPPRRNTEILTGSWSDQTYPEGTQAIYKCRPGYRSLGNVIMVCRKGEWVALNPLRKCQKRPCGHPGDTPFGTFTLTGGNVFEYGVKAVYTCNEGYQLLGEINYRECDTDGWTNDIPICEVVKCLPVTAPENGKIVSSAMEPDREYHFGQAVRFVCNSGYKIEGDEEMHCSDDGFWSKEKPKCVEISCKSPDVINGSPISQKIIYKENERFQYKCNMGYEYSERGDAVCTESGWRPLPSCEEKSCDNPYIPNGDYSPLRIKHRTGDEITYQCRNGFYPATRGNTAKCTSTGWIPAPRCTLKPCDYPDIKHGGLYHENMRRPYFPVAVGKYYSYYCDEHFETPSGSYWDHIHCTQDGWSPAVPCLRKCYFPYLENGYNQNYGRKFVQGKSIDVACHPGYALPKAQTTVTCMENGWSPTPRCIRVKTCSKSSIDIENGFISESQYTYALKEKAKYQCKLGYVTADGETSGSITCGKDGWSAQPTCIKSCDIPVFMNARTKNDFTWFKLNDTLDYECHDGYESNTGSTTGSIVCGYNGWSDLPICYERECELPKIDVHLVPDRKKDQYKVGEVLKFSCKPGFTIVGPNSVQCYHFGLSPDLPICKEQVQSCGPPPELLNGNVKEKTKEEYGHSEVVEYYCNPRFLMKGPNKIQCVDGEWTTLPVCIVEESTCGDIPELEHGWAQLSSPPYYYGDSVEFNCSESFTMIGHRSITCIHGVWTQLPQCVAIDKLKKCKSSNLIILEEHLKNKKEFDHNSNIRYRCRGKEGWIHTVCINGRWDPEVNCSMAQIQLCPPPPQIPNSHNMTTTLNYRDGEKVSVLCQENYLIQEGEEITCKDGRWQSIPLCVEKIPCSQPPQIEHGTINSSRSSQESYAHGTKLSYTCEGGFRISEENETTCYMGKWSSPPQCEGLPCKSPPEISHGVVAHMSDSYQYGEEVTYKCFEGFGIDGPAIAKCLGEKWSHPPSCIKTDCLSLPSFENAIPMGEKKDVYKAGEQVTYTCATYYKMDGASNVTCINSRWTGRPTCRDTSCVNPPTVQNAYIVSRQMSKYPSGERVRYQCRSPYEMFGDEEVMCLNGNWTEPPQCKDSTGKCGPPPPIDNGDITSFPLSVYAPASSVEYQCQNLYQLEGNKRITCRNGQWSEPPKCLHPCVISREIMENYNIALRWTAKQKLYSRTGESVEFVCKRGYRLSSRSHTLRTTCWDGKLEYPTCAKR
Regarding B3, the 50% effective concentration (EC50) in the assay with human C3b [1] was 4.5 nM; in the assay with human C3b [3], 1.2 nM.

B4: Factor H-like protein 1 (FHL-1) (other)
chain: EDCNELPPRRNTEILTGSWSDQTYPEGTQAIYKCRPGYRSLGNVIMVCRKGEWVALNPLRKCQKRPCGHPGDTPFGTFTLTGGNVFEYGVKAVYTCNEGYQLLGEINYRECDTDGWTNDIPICEVVKCLPVTAPENGKIVSSAMEPDREYHFGQAVRFVCNSGYKIEGDEEMHCSDDGFWSKEKPKCVEISCKSPDVINGSPISQKIIYKENERFQYKCNMGYEYSERGDAVCTESGWRPLPSCEEKSCDNPYIPNGDYSPLRIKHRTGDEITYQCRNGFYPATRGNTAKCTSTGWIPAPRCTLKPCDYPDIKHGGLYHENMRRPYFPVAVGKYYSYYCDEHFETPSGSYWDHIHCTQDGWSPAVPCLRKCYFPYLENGYNQNYGRKFVQGKSIDVACHPGYALPKAQTTVTCMENGWSPTPRCIRVSFTL
In the assay with human C3b [1], B4 displayed an EC50 of 7.4 nM.

Values taken from patent publication US20260116937A1 (published 2026).
